The target of the assay is TIM (the TIM-EGFP-LacI bait of the FRAP experiment, not named). The assay is described as follows: FRAP.

B1: TagRFP-PPP1R10-TND (domain or fragment)
chain: KLLNNWLTYSKTTNNIPLLQQILLTLQHLPLTVDHLKQNNTAKLVKQLSKSSEDEELRKLASVLVSDWMAVIRSQ
Take B1: the FRAP half-life came out at 14.9 s.

Source of the values: paper PMC8943916.
